# Measurements taken from patent publication US20230272029A1, “CO-AGONISTS AT GLP-1 AND GIP RECEPTORS SUITABLE FOR ORAL DELIVERY” (Novo Nordisk A/S, priority 2020, published 2023).
# Starred links: 1 amine or outer side, 2 acyl side, 3 side chain; linkers in the order of their positions; H or OH if unused. Non-standard residues stand in square brackets, D forms with d. Groups on a side chain read outwards from the residue. No end group written: not given here. *: point of attachment. C20 diacid = O=C(O)CCCCCCCCCCCCCCCCCCC(=O)*; C18 diacid = O=C(O)CCCCCCCCCCCCCCCCC(=O)*; γGlu = O=C(O)[C@H](CCC(=O)[*:2])N[*:1]; εLys = N[C@@H](CCCCN[*:1])C(=O)[*:2]; Aib = CC(C)(N)C(=O)O
# T1: human GIP receptor (human, UniProt P48546 22-466)
# T1 sequence (looked up): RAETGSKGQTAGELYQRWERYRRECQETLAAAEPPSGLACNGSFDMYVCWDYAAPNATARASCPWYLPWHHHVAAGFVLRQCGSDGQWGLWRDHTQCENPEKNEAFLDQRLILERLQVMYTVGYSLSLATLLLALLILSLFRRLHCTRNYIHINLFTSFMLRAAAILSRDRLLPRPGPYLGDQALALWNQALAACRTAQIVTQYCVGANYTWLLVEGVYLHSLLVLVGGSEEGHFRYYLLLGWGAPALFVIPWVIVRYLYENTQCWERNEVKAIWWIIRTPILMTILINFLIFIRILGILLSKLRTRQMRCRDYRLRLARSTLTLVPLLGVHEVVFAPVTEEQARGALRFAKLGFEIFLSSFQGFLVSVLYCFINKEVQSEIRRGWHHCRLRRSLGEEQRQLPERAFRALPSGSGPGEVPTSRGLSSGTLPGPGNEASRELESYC
# B1: Compound No. 16 (peptide)
# peptide: Y[Aib]EGTFTSDYSIYLEK([εLys-εLys-γGlu-C20 diacid])QAAREFINWLLAGGPSSGAPPPS-OH
# modifications: N-terminus assumed
# SMILES: CC[C@H](C)[C@H](NC(=O)[C@H](Cc1ccccc1)NC(=O)[C@H](CCC(=O)O)NC(=O)[C@H](CCCNC(=N)N)NC(=O)[C@H](C)NC(=O)[C@H](C)NC(=O)[C@H](CCC(N)=O)NC(=O)[C@H](CCCCNC(=O)[C@@H](N)CCCCNC(=O)[C@@H](N)CCCCNC(=O)CC[C@H](NC(=O)CCCCCCCCCCCCCCCCCCC(=O)O)C(=O)O)NC(=O)[C@H](CCC(=O)O)NC(=O)[C@H](CC(C)C)NC(=O)[C@H](Cc1ccc(O)cc1)NC(=O)[C@@H](NC(=O)[C@H](CO)NC(=O)[C@H](Cc1ccc(O)cc1)NC(=O)[C@H](CC(=O)O)NC(=O)[C@H](CO)NC(=O)[C@@H](NC(=O)[C@H](Cc1ccccc1)NC(=O)[C@@H](NC(=O)CNC(=O)[C@H](CCC(=O)O)NC(=O)C(C)(C)NC(=O)[C@@H](N)Cc1ccc(O)cc1)[C@@H](C)O)[C@@H](C)O)[C@@H](C)CC)C(=O)N[C@@H](CC(N)=O)C(=O)N[C@@H](Cc1c[nH]c2ccccc12)C(=O)N[C@@H](CC(C)C)C(=O)N[C@@H](CC(C)C)C(=O)N[C@@H](C)C(=O)NCC(=O)NCC(=O)N1CCC[C@H]1C(=O)N[C@@H](CO)C(=O)N[C@@H](CO)C(=O)NCC(=O)N[C@@H](C)C(=O)N1CCC[C@H]1C(=O)N1CCC[C@H]1C(=O)N1CCC[C@H]1C(=O)N[C@@H](CO)C(=O)O
# B2: Compound No. 15 (peptide)
# peptide: Y[Aib]EGTFTSDYSILLEK([εLys-εLys-γGlu-C18 diacid])QAAREFINWLLAGGPSSGAPPPS-OH
# modifications: N-terminus assumed
# SMILES: CC[C@H](C)[C@H](NC(=O)[C@H](Cc1ccccc1)NC(=O)[C@H](CCC(=O)O)NC(=O)[C@H](CCCNC(=N)N)NC(=O)[C@H](C)NC(=O)[C@H](C)NC(=O)[C@H](CCC(N)=O)NC(=O)[C@H](CCCCNC(=O)[C@@H](N)CCCCNC(=O)[C@@H](N)CCCCNC(=O)CC[C@H](NC(=O)CCCCCCCCCCCCCCCCC(=O)O)C(=O)O)NC(=O)[C@H](CCC(=O)O)NC(=O)[C@H](CC(C)C)NC(=O)[C@H](CC(C)C)NC(=O)[C@@H](NC(=O)[C@H](CO)NC(=O)[C@H](Cc1ccc(O)cc1)NC(=O)[C@H](CC(=O)O)NC(=O)[C@H](CO)NC(=O)[C@@H](NC(=O)[C@H](Cc1ccccc1)NC(=O)[C@@H](NC(=O)CNC(=O)[C@H](CCC(=O)O)NC(=O)C(C)(C)NC(=O)[C@@H](N)Cc1ccc(O)cc1)[C@@H](C)O)[C@@H](C)O)[C@@H](C)CC)C(=O)N[C@@H](CC(N)=O)C(=O)N[C@@H](Cc1c[nH]c2ccccc12)C(=O)N[C@@H](CC(C)C)C(=O)N[C@@H](CC(C)C)C(=O)N[C@@H](C)C(=O)NCC(=O)NCC(=O)N1CCC[C@H]1C(=O)N[C@@H](CO)C(=O)N[C@@H](CO)C(=O)NCC(=O)N[C@@H](C)C(=O)N1CCC[C@H]1C(=O)N1CCC[C@H]1C(=O)N1CCC[C@H]1C(=O)N[C@@H](CO)C(=O)O
# B3: Compound No. 38 (peptide)
# peptide: Y[Aib]EGTFTSDYSIYLEEK([εLys-εLys-γGlu-C18 diacid])AAREFINWLLAGGPSSGAPPPS-OH
# modifications: N-terminus assumed
# SMILES: CC[C@H](C)[C@H](NC(=O)[C@H](Cc1ccccc1)NC(=O)[C@H](CCC(=O)O)NC(=O)[C@H](CCCNC(=N)N)NC(=O)[C@H](C)NC(=O)[C@H](C)NC(=O)[C@H](CCCCNC(=O)[C@@H](N)CCCCNC(=O)[C@@H](N)CCCCNC(=O)CC[C@H](NC(=O)CCCCCCCCCCCCCCCCC(=O)O)C(=O)O)NC(=O)[C@H](CCC(=O)O)NC(=O)[C@H](CCC(=O)O)NC(=O)[C@H](CC(C)C)NC(=O)[C@H](Cc1ccc(O)cc1)NC(=O)[C@@H](NC(=O)[C@H](CO)NC(=O)[C@H](Cc1ccc(O)cc1)NC(=O)[C@H](CC(=O)O)NC(=O)[C@H](CO)NC(=O)[C@@H](NC(=O)[C@H](Cc1ccccc1)NC(=O)[C@@H](NC(=O)CNC(=O)[C@H](CCC(=O)O)NC(=O)C(C)(C)NC(=O)[C@@H](N)Cc1ccc(O)cc1)[C@@H](C)O)[C@@H](C)O)[C@@H](C)CC)C(=O)N[C@@H](CC(N)=O)C(=O)N[C@@H](Cc1c[nH]c2ccccc12)C(=O)N[C@@H](CC(C)C)C(=O)N[C@@H](CC(C)C)C(=O)N[C@@H](C)C(=O)NCC(=O)NCC(=O)N1CCC[C@H]1C(=O)N[C@@H](CO)C(=O)N[C@@H](CO)C(=O)NCC(=O)N[C@@H](C)C(=O)N1CCC[C@H]1C(=O)N1CCC[C@H]1C(=O)N1CCC[C@H]1C(=O)N[C@@H](CO)C(=O)O
# B4: Compound No. 14 (peptide)
# peptide: Y[Aib]EGTFTSDYSIALEK([εLys-εLys-γGlu-C18 diacid])QAAREFINWLLAGGPSSGAPPPS-OH
# modifications: N-terminus assumed
# SMILES: CC[C@H](C)[C@H](NC(=O)[C@H](CO)NC(=O)[C@H](Cc1ccc(O)cc1)NC(=O)[C@H](CC(=O)O)NC(=O)[C@H](CO)NC(=O)[C@@H](NC(=O)[C@H](Cc1ccccc1)NC(=O)[C@@H](NC(=O)CNC(=O)[C@H](CCC(=O)O)NC(=O)C(C)(C)NC(=O)[C@@H](N)Cc1ccc(O)cc1)[C@@H](C)O)[C@@H](C)O)C(=O)N[C@@H](C)C(=O)N[C@@H](CC(C)C)C(=O)N[C@@H](CCC(=O)O)C(=O)N[C@@H](CCCCNC(=O)[C@@H](N)CCCCNC(=O)[C@@H](N)CCCCNC(=O)CC[C@H](NC(=O)CCCCCCCCCCCCCCCCC(=O)O)C(=O)O)C(=O)N[C@@H](CCC(N)=O)C(=O)N[C@@H](C)C(=O)N[C@@H](C)C(=O)N[C@@H](CCCNC(=N)N)C(=O)N[C@@H](CCC(=O)O)C(=O)N[C@@H](Cc1ccccc1)C(=O)N[C@H](C(=O)N[C@@H](CC(N)=O)C(=O)N[C@@H](Cc1c[nH]c2ccccc12)C(=O)N[C@@H](CC(C)C)C(=O)N[C@@H](CC(C)C)C(=O)N[C@@H](C)C(=O)NCC(=O)NCC(=O)N1CCC[C@H]1C(=O)N[C@@H](CO)C(=O)N[C@@H](CO)C(=O)NCC(=O)N[C@@H](C)C(=O)N1CCC[C@H]1C(=O)N1CCC[C@H]1C(=O)N1CCC[C@H]1C(=O)N[C@@H](CO)C(=O)O)[C@@H](C)CC
# B5: Compound No. 13 (peptide)
# peptide: Y[Aib]EGTFTSDYSIYLEK([εLys-εLys-γGlu-C18 diacid])QAAREFIEWLLRGGPESGAPPPS-OH
# modifications: N-terminus assumed
# SMILES: CC[C@H](C)[C@H](NC(=O)[C@H](Cc1ccccc1)NC(=O)[C@H](CCC(=O)O)NC(=O)[C@H](CCCNC(=N)N)NC(=O)[C@H](C)NC(=O)[C@H](C)NC(=O)[C@H](CCC(N)=O)NC(=O)[C@H](CCCCNC(=O)[C@@H](N)CCCCNC(=O)[C@@H](N)CCCCNC(=O)CC[C@H](NC(=O)CCCCCCCCCCCCCCCCC(=O)O)C(=O)O)NC(=O)[C@H](CCC(=O)O)NC(=O)[C@H](CC(C)C)NC(=O)[C@H](Cc1ccc(O)cc1)NC(=O)[C@@H](NC(=O)[C@H](CO)NC(=O)[C@H](Cc1ccc(O)cc1)NC(=O)[C@H](CC(=O)O)NC(=O)[C@H](CO)NC(=O)[C@@H](NC(=O)[C@H](Cc1ccccc1)NC(=O)[C@@H](NC(=O)CNC(=O)[C@H](CCC(=O)O)NC(=O)C(C)(C)NC(=O)[C@@H](N)Cc1ccc(O)cc1)[C@@H](C)O)[C@@H](C)O)[C@@H](C)CC)C(=O)N[C@@H](CCC(=O)O)C(=O)N[C@@H](Cc1c[nH]c2ccccc12)C(=O)N[C@@H](CC(C)C)C(=O)N[C@@H](CC(C)C)C(=O)N[C@@H](CCCNC(=N)N)C(=O)NCC(=O)NCC(=O)N1CCC[C@H]1C(=O)N[C@@H](CCC(=O)O)C(=O)N[C@@H](CO)C(=O)NCC(=O)N[C@@H](C)C(=O)N1CCC[C@H]1C(=O)N1CCC[C@H]1C(=O)N1CCC[C@H]1C(=O)N[C@@H](CO)C(=O)O
# Molecular target: human GLP-1 receptor (human, UniProt P43220 24-463)
# Experiment: cell-based or functional assay
Binder,"hGLP-1R, CRE Luc 0% HSA EC50 (pM)","hGLP-1R, CRE Luc 1% HSA EC50 (pM)"
B1,3.1,321
B2,5,130
B3,3.1,259
B4,5.4,306
B5,7.4,204

# Molecular target: T1, human GIP receptor
# Experiment: cell-based or functional assay
Binder,"hGIPR, CRE Luc 0% HSA EC50 (pM)","hGIPR, CRE Luc 1% HSA EC50 (pM)"
B1,13.4,804
B2,7.1,138
B3,12.4,815
B4,11.6,580
B5,13.9,257
